Data as given in the Human Domainome abundance scans (Beltran et al. 2025).
± gives the uncertainty stated by the source.

B1: Peripheral plasma membrane protein CASK, residues 488 to 569; numbered along this chain, O14936 (parent)
chain: VRLVQFQKNTDEPMGITLKMNELNHCIVARIMHGGMIHRQGTLHVGDEIREINGISVANQTVEQLQKMLREMRGSITFKIVP

Variants of: B1
Assay: abundance fitness (aPCA) (normalised: wild type 0, dead -1); higher = more abundant; growth selection in yeast, the domain comes from the species named
Conditions: Homo sapiens

Variant	abundance fitness
VRLVQVQKNTDEPMGITLKMNELNHCIVARIMHGGMIHRQGTLHVGDEIREINGISVANQTVEQLQKMLREMRGSITFKIVP [F6V]	0.061 ± 0.022
VRLVQDQKNTDEPMGITLKMNELNHCIVARIMHGGMIHRQGTLHVGDEIREINGISVANQTVEQLQKMLREMRGSITFKIVP [F6D]	-0.712 ± 0.054
VRLVQWQKNTDEPMGITLKMNELNHCIVARIMHGGMIHRQGTLHVGDEIREINGISVANQTVEQLQKMLREMRGSITFKIVP [F6W]	-0.251 ± 0.025
VRLVQYQKNTDEPMGITLKMNELNHCIVARIMHGGMIHRQGTLHVGDEIREINGISVANQTVEQLQKMLREMRGSITFKIVP [F6Y]	-0.095 ± 0.035
VRLVQSQKNTDEPMGITLKMNELNHCIVARIMHGGMIHRQGTLHVGDEIREINGISVANQTVEQLQKMLREMRGSITFKIVP [F6S]	-0.321 ± 0.027
VRLVQAQKNTDEPMGITLKMNELNHCIVARIMHGGMIHRQGTLHVGDEIREINGISVANQTVEQLQKMLREMRGSITFKIVP [F6A]	-0.065 ± 0.022
VRLVQNQKNTDEPMGITLKMNELNHCIVARIMHGGMIHRQGTLHVGDEIREINGISVANQTVEQLQKMLREMRGSITFKIVP [F6N]	-0.708 ± 0.069
VRLVQEQKNTDEPMGITLKMNELNHCIVARIMHGGMIHRQGTLHVGDEIREINGISVANQTVEQLQKMLREMRGSITFKIVP [F6E]	-0.629 ± 0.038
VRLVQLQKNTDEPMGITLKMNELNHCIVARIMHGGMIHRQGTLHVGDEIREINGISVANQTVEQLQKMLREMRGSITFKIVP [F6L]	0.053 ± 0.023
VRLVQRQKNTDEPMGITLKMNELNHCIVARIMHGGMIHRQGTLHVGDEIREINGISVANQTVEQLQKMLREMRGSITFKIVP [F6R]	-0.673 ± 0.029
VRLVQPQKNTDEPMGITLKMNELNHCIVARIMHGGMIHRQGTLHVGDEIREINGISVANQTVEQLQKMLREMRGSITFKIVP [F6P]	-0.924 ± 0.071
VRLVQGQKNTDEPMGITLKMNELNHCIVARIMHGGMIHRQGTLHVGDEIREINGISVANQTVEQLQKMLREMRGSITFKIVP [F6G]	-0.405 ± 0.022
VRLVQHQKNTDEPMGITLKMNELNHCIVARIMHGGMIHRQGTLHVGDEIREINGISVANQTVEQLQKMLREMRGSITFKIVP [F6H]	-0.181 ± 0.053
VRLVQTQKNTDEPMGITLKMNELNHCIVARIMHGGMIHRQGTLHVGDEIREINGISVANQTVEQLQKMLREMRGSITFKIVP [F6T]	-0.129 ± 0.028
VRLVQCQKNTDEPMGITLKMNELNHCIVARIMHGGMIHRQGTLHVGDEIREINGISVANQTVEQLQKMLREMRGSITFKIVP [F6C]	-0.01 ± 0.029
VRLVQIQKNTDEPMGITLKMNELNHCIVARIMHGGMIHRQGTLHVGDEIREINGISVANQTVEQLQKMLREMRGSITFKIVP [F6I]	-0.028 ± 0.04
VRLVQQQKNTDEPMGITLKMNELNHCIVARIMHGGMIHRQGTLHVGDEIREINGISVANQTVEQLQKMLREMRGSITFKIVP [F6Q]	-0.589 ± 0.049

Variant	abundance fitness
VRLVQMQKNTDEPMGITLKMNELNHCIVARIMHGGMIHRQGTLHVGDEIREINGISVANQTVEQLQKMLREMRGSITFKIVP [F6M]	0.052 ± 0.027
VRLVQKQKNTDEPMGITLKMNELNHCIVARIMHGGMIHRQGTLHVGDEIREINGISVANQTVEQLQKMLREMRGSITFKIVP [F6K]	-0.674 ± 0.047
VRLVWFQKNTDEPMGITLKMNELNHCIVARIMHGGMIHRQGTLHVGDEIREINGISVANQTVEQLQKMLREMRGSITFKIVP [Q5W]	-0.106 ± 0.028
VRLVTFQKNTDEPMGITLKMNELNHCIVARIMHGGMIHRQGTLHVGDEIREINGISVANQTVEQLQKMLREMRGSITFKIVP [Q5T]	0.117 ± 0.025
VRLVGFQKNTDEPMGITLKMNELNHCIVARIMHGGMIHRQGTLHVGDEIREINGISVANQTVEQLQKMLREMRGSITFKIVP [Q5G]	0 ± 0.023
VRLVYFQKNTDEPMGITLKMNELNHCIVARIMHGGMIHRQGTLHVGDEIREINGISVANQTVEQLQKMLREMRGSITFKIVP [Q5Y]	-0.024 ± 0.031
VRLVHFQKNTDEPMGITLKMNELNHCIVARIMHGGMIHRQGTLHVGDEIREINGISVANQTVEQLQKMLREMRGSITFKIVP [Q5H]	-0.049 ± 0.033
VRLVSFQKNTDEPMGITLKMNELNHCIVARIMHGGMIHRQGTLHVGDEIREINGISVANQTVEQLQKMLREMRGSITFKIVP [Q5S]	0.075 ± 0.024
VRLVIFQKNTDEPMGITLKMNELNHCIVARIMHGGMIHRQGTLHVGDEIREINGISVANQTVEQLQKMLREMRGSITFKIVP [Q5I]	-0.068 ± 0.03
VRLVFFQKNTDEPMGITLKMNELNHCIVARIMHGGMIHRQGTLHVGDEIREINGISVANQTVEQLQKMLREMRGSITFKIVP [Q5F]	-0.041 ± 0.032
VRLVEFQKNTDEPMGITLKMNELNHCIVARIMHGGMIHRQGTLHVGDEIREINGISVANQTVEQLQKMLREMRGSITFKIVP [Q5E]	0.149 ± 0.027
VRLVDFQKNTDEPMGITLKMNELNHCIVARIMHGGMIHRQGTLHVGDEIREINGISVANQTVEQLQKMLREMRGSITFKIVP [Q5D]	-0.038 ± 0.034
VRLVMFQKNTDEPMGITLKMNELNHCIVARIMHGGMIHRQGTLHVGDEIREINGISVANQTVEQLQKMLREMRGSITFKIVP [Q5M]	0.065 ± 0.029
VRLVVFQKNTDEPMGITLKMNELNHCIVARIMHGGMIHRQGTLHVGDEIREINGISVANQTVEQLQKMLREMRGSITFKIVP [Q5V]	0.029 ± 0.023
VRLVRFQKNTDEPMGITLKMNELNHCIVARIMHGGMIHRQGTLHVGDEIREINGISVANQTVEQLQKMLREMRGSITFKIVP [Q5R]	0.074 ± 0.023
VRLVLFQKNTDEPMGITLKMNELNHCIVARIMHGGMIHRQGTLHVGDEIREINGISVANQTVEQLQKMLREMRGSITFKIVP [Q5L]	-0.092 ± 0.023
VRLVKFQKNTDEPMGITLKMNELNHCIVARIMHGGMIHRQGTLHVGDEIREINGISVANQTVEQLQKMLREMRGSITFKIVP [Q5K]	0.128 ± 0.03
